Source: article PMC3273627
Read-outs that look alike come from different tables or passages of the source.

What was measured:
actin filaments [1] = molecular target: actin filaments (UniProt P68135); assay: co-sedimentation
[2] = molecular target: Actin (Oryctolagus cuniculus) (UniProt P68135); conditions: cited from earlier work
[3] = molecular target: Actin (Oryctolagus cuniculus) (UniProt P68135); conditions: cited from earlier work; remark: listed apart in the source
actin filaments [4] = molecular target: actin filaments (UniProt P68135); assay: co-sedimentation; remark: listed apart in the source

Substance: DP260 isoform of dystrophin
- Kd (actin filaments [1]): 6850 nM

Substance: Dystrophin (from UniProt P11531)
- Kd [2]: 300 nM

Substance: Dystrophin DysN-R17 (from UniProt P11531)
- Kd [3]: 760 nM

Substance: full-length dystrophin, P11531 1-3678
- Kd (actin filaments [4]): 152 nM
- Kd (actin filaments [1]): 110 nM
